This note sets out measurements from paper PMC3602594.

Where no end group is shown, it is not given here.

Experiment [1] deals with Atto647N-YidC-23C (Escherichia coli) (UniProt P25714).
For experiment [2] the target is unchanged. The experiment in a line: FRET or BRET; single-pair FRET by confocal microscopy with alternating laser excitation (514 nm / 635 nm); Atto520-labeled Pf3 coat protein added to Atto647N-labeled YidC reconstituted in DOPC proteoliposomes; 20 mM Tris-HCl pH 7.0, 100 mM NaCl, isopropanol from the Pf3 solution; about 0.2 nM of both labeled proteins; bursts recorded for 420 s.

Experiment [3] addresses Atto647N-YidC-442C (Escherichia coli) (UniProt P25714). The experiment is described as above.
Experiment [4] concerns the target Atto647N-YidC-511C (Escherichia coli) (UniProt P25714). Described as above.

Molecule MQSVITDVTGQLTAVC(Atto520‑maleimide)ADITTIGGAIIVLAAVVLGIRWIKAQFF (natural protein) [Atto520-Pf3-16C] registered an insertion rate k (reciprocal of the time required for a distance change from 6.2 to 4.0 nm in single-pair FRET traces), at 15, 20, 25 and 30°C; k ≈ 250 s^−1 at 15°C in experiment [1] of 500 s⁻¹. Further, the duration of the close contact in experiment [2], in experiment [3] and in experiment [4] was 10 ms in each case.
